Results published in patent US20250257099A1 (priority 2022, published 2025).

Experiments:
[1] = target: SARS-CoV-2 spike (S) glycoprotein (SARS-CoV-2) (UniProt P0DTC2); assay: cell-based or functional assay
[2] = target: MERS-CoV spike (S) protein (MERS-CoV) (UniProt K9N5Q8); assay: cell-based or functional assay

## EK1 lipopeptide (EK1C4), cholesterol-conjugated
[1]
  IC50, plaque-neutralization test, SARS-CoV-2 infection of Vero E6 cells: 80 nM
[2]
  IC50, plaque-neutralization test, MERS-CoV infection of Vero E6 cells: 8 nM
